This test has as its target recombinant histone H3K4me3, P68431. The experiment in a line: co-immunoprecipitation with anti-H3K4me3 antibodies, quantified anti-GFP immunoblot. The note with it: chain shown with the change, 0.3-M NaCl extracts of XP-C fibroblasts, recombinant H3K4me3 2 µg, n = 3, read off a plot. A general note: In western blotting, separated proteins are transferred to a membrane and probed.

The values that follow come from PMC5673894.

Changes are numbered by the printed parent chain. Names may count otherwise.

B1: wild-type XPC-GFP fusion, Q01831 W690S (protein)
chain: MARKRAAGGEPRGRELRSQKSKAKSKARREEEEEDAFEDEKPPKKSLLSKVSQGKRKRGCSHPGGSADGPAKKKVAKVTVKSENLKVIKDEALSDGDDLRDFPSDLKKAHHLKRGATMNEDSNEEEEESENDWEEVEELSEPVLGDVRESTAFSRSLLPVKPVEIEIETPEQAKTRERSEKIKLEFETYLRRAMKRFNKGVHEDTHKVHLLCLLANGFYRNNICSQPDLHAIGLSIIPARFTRVLPRDVDTYYLSNLVKWFIGTFTVNAELSASEQDNLQTTLERRFAIYSARDDEELVHIFLLILRALQLLTRLVLSLQPIPLKSATAKGKKPSKERLTADPGGSSETSSQVLENHTKPKTSKGTKQEETFAKGTCRPSAKGKRNKGGRKKRSKPSSSEEDEGPGDKQEKATQRRPHGRERRVASRVSYKEESGSDEAGSGSDFELSSGEASDPSDEDSEPGPPKQRKAPAPQRTKAGSKSASRTHRGSHRKDPSLPAASSSSSSSKRGKKMCSDGEKAEKRSIAGIDQWLEVFCEQEEKWVCVDCVHGVVGQPLTCYKYATKPMTYVVGIDSDGWVRDVTQRYDPVWMTVTRKCRVDAEWWAETLRPYQSPFMDREKKEDLEFQAKHMDQPLPTAIGLYKNHPLYALKRHLLKYEAIYPETAAILGYCRGEAVYSRDCVHTLHSRDTSLKKARVVRLGEVPYKMVKGFSNRARKARLAEPQLREENDLGLFGYWQTEEYQPPVAVDGKVPRNEFGNVYLFLPSMMPIGCVQLNLPNLHRVARKLDIDCVQAITGFDFHGGYSHPVTDGYIVCEEFKDVLLTAWENEQAVIERKEKEKKEKRALGNWKLLAKGLLIRERLKRRYGPKSEAAAPHTDAGGGLSSDEEEGTSSQAEAARILAASWPQNREDEEKQKLKGGPKKTKREKKAAASHLFPFEQL
Turning to B1, the percent of parent was 72 % WT.

B2: wild-type XPC-GFP fusion, Q01831 E755K (protein)
chain: B1 chain with S690W, E755K
For B2, the percent of parent worked out at 85 % WT.

B3: wild-type XPC-GFP fusion, Q01831 D748K (protein)
chain: B1 chain with S690W, D748K
Regarding B3, under “P = 0.0087 vs WT”, the percent of parent is 55 % WT.

B4: wild-type XPC-GFP fusion, Q01831 D748K; E755K (protein)
chain: B1 chain with S690W, D748K, E755K
For the molecule B4, the percent of parent (P = 0.0147 vs WT) was 46 % WT.
